# ± gives the uncertainty stated by the source.
# Experiment: self-splicing fitness, log relative to wild type (ln ratio); higher = more splicing; Tetrahymena group I intron in knt gene, E. coli kanamycin selection, DiMSum; sequences stand for … in CUCUCU…GGAGGGAAAAGUUAUCAGGCAUGCACCUGGUAGCUAGUCUUUAAACCAAUAGAUUGCAUCGGUUUAAAAGGCAAGACCGUCAAAUUGCGGGAAAGGGGUCAACAGCCGUUCAGUACCAAGUCUCAGGGGAAACUUUGAGAUGGCCUUGCAAAGGGUAUGGUAAUAAGCUGACGGACAUGGUCCUAACCACGCAGCCAAGUCCUAAGUCAACAGAUCUUCUGUUGAUAUGGAUGCAGUUCACAGACUAAAUGUCGGUCGGGGAAGAUGUAUUCUUCUCAUAAGAUAUAGUCGGACCUCUCCUUAAUGGGAGCUAGCGGAUGAAGUGAUGCAACACUGGAGCCGCUGGGAACUAAUUUGUAUGCGAAAGUAUAUUGAUUAGUUUUGGAGUACUCGUGGUCG
# How it was run: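 Colonies from six replicate transformations of E. coli BL21(DE3) were pooled and amplicon-sequenced on an Illumina HiSeq 2500. The library placed an intron with all eight P1ex-region nucleotides randomised inside the knt kanamycin-resistance gene on pET-22b(+), and cells grew overnight at 37°C or 30°C on LB agar with or without 25 μg/mL kanamycin (plus 100 μg/mL carbenicillin, 50 μM IPTG, 0.2% rhamnose). Fitness is the DiMSum error-weighted combination of wild-type-normalised replicate fold changes, kanamycin versus none.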
Sequence,self-splicing fitness (ln) (30 °C),self-splicing fitness (ln) (37 °C)
CGGCAGCAAUAUUACGAUAG,-0.0988 ± 0.079,-0.126 ± 0.086
AUCAAGCAAUAUUACGUGUA,-2.39 ± 0.14,-1.42 ± 0.12
AAUCAGCAAUAUUACGCAAG,-0.971 ± 0.068,-0.72 ± 0.087
GCCCAGCAAUAUUACGAAGU,-0.333 ± 0.054,0.22 ± 0.069
CUCAAGCAAUAUUACGGUCA,-3.19 ± 0.2,-2.35 ± 0.2
CUGGAGCAAUAUUACGCGAU,-2.76 ± 0.16,-1.9 ± 0.15
CAGCAGCAAUAUUACGAUGU,-4.21 ± 0.22,-2.6 ± 0.15
CUACAGCAAUAUUACGGUAC,-2.81 ± 0.13,-1.13 ± 0.18
UCGAAGCAAUAUUACGGGAG,-3.68 ± 0.33,-2.91 ± 0.31
CUGGAGCAAUAUUACGGGUU,-2.29 ± 0.18,-2.91 ± 0.28
CUGCAGCAAUAUUACGUGAA,-4.94 ± 0.45,-3.45 ± 0.23
CUGAAGCAAUAUUACGCGGA,-3.45 ± 0.16,-1.7 ± 0.2
AGUUAGCAAUAUUACGCAAG,-2.63 ± 0.12,-1.24 ± 0.13
GACGAGCAAUAUUACGUGUC,–,-2.74 ± 0.28
GGACAGCAAUAUUACGGCGG,-2.64 ± 0.13,-1.52 ± 0.13
UAGAAGCAAUAUUACGUUAG,-2.51 ± 0.1,-0.338 ± 0.093
CCCUAGCAAUAUUACGCUGC,-3.47 ± 0.32,–
CACUAGCAAUAUUACGUGCU,-3.69 ± 0.2,-2.55 ± 0.15
CUCGAGCAAUAUUACGUAGU,-3.91 ± 0.26,-2.18 ± 0.21
GAACAGCAAUAUUACGAUGA,-0.145 ± 0.077,-0.155 ± 0.081
UUCGAGCAAUAUUACGCUAC,–,-0.0805 ± 0.34
GAAAAGCAAUAUUACGCGAG,-1.64 ± 0.058,-0.497 ± 0.068
GACGAGCAAUAUUACGGUCA,-2.22 ± 0.15,-0.552 ± 0.15
AUUAAGCAAUAUUACGUAUG,-2.74 ± 0.25,-1.47 ± 0.21
GGCCAGCAAUAUUACGUGCG,-1.17 ± 0.06,-0.564 ± 0.079

Sequence,self-splicing fitness (ln) (30 °C),self-splicing fitness (ln) (37 °C)
AGAUAGCAAUAUUACGCAGU,-2.55 ± 0.17,-1.49 ± 0.17
UCGGAGCAAUAUUACGGGGG,-2.73 ± 0.22,-2.32 ± 0.3
AUAUAGCAAUAUUACGUUUG,-2.71 ± 0.23,-2.21 ± 0.26
GAGGAGCAAUAUUACGGGCG,-2.68 ± 0.32,-1.56 ± 0.24
ACCGAGCAAUAUUACGAGUC,-4.62 ± 0.3,-3.25 ± 0.22
AUCCAGCAAUAUUACGGAAG,-1.1 ± 0.11,-0.947 ± 0.14
UGUUAGCAAUAUUACGCACG,-0.922 ± 0.11,-0.377 ± 0.12
AUAGAGCAAUAUUACGAACU,-0.774 ± 0.13,0.227 ± 0.18
CGAUAGCAAUAUUACGGCCA,-1.22 ± 0.12,-0.957 ± 0.15
AGUAAGCAAUAUUACGUGGG,-3.66 ± 0.26,-1.89 ± 0.17
CCCCAGCAAUAUUACGCGUC,-3.21 ± 0.17,-2.92 ± 0.18
GACAAGCAAUAUUACGGCCU,-0.429 ± 0.082,-0.314 ± 0.1
GGACAGCAAUAUUACGGACA,-0.509 ± 0.11,-0.307 ± 0.11
CUCGAGCAAUAUUACGAGUC,-3.52 ± 0.32,-2.53 ± 0.2
GUAUAGCAAUAUUACGCGUG,-2.13 ± 0.18,-0.201 ± 0.14
CUUUAGCAAUAUUACGGGAG,-2.89 ± 0.18,-2.57 ± 0.21
GGGCAGCAAUAUUACGUAAG,-0.581 ± 0.063,0.126 ± 0.096
AUUAAGCAAUAUUACGGCAG,-1 ± 0.11,0.0222 ± 0.13
ACAAAGCAAUAUUACGUUAG,-2.73 ± 0.11,-2.69 ± 0.17
UGUCAGCAAUAUUACGUACA,-0.576 ± 0.11,-0.0735 ± 0.13
CCUCAGCAAUAUUACGUUUC,-3.04 ± 0.17,-2.44 ± 0.2
UGUGAGCAAUAUUACGCGAA,-4.12 ± 0.29,-2.54 ± 0.18
CUUUAGCAAUAUUACGAAAG,-3.18 ± 0.23,-1.7 ± 0.28
UUCCAGCAAUAUUACGGGCU,-4.67 ± 0.31,-2.18 ± 0.17
